{
  "source": "patent US20140328939A1",
  "about": "“METHOD FOR PREPARING BIOCOMPATIBLE SMALL INTESTINAL MUCOSA HYDROGEL CAPABLE OF CONTROLLING IN-VIVO DEGRADATION PERIOD” (AJOU UNIVERSITY INDUSTRY-ACADEMIC COOPERATION FOUNDATION, priority 2011, published 2014)",
  "test": "In-vivo drug release test (FITC-labeled albumin)",
  "settings": "0.5 mL subcutaneous, SD rats; FITC-BSA 1 mg/mL",
  "experimental": "The prepared small intestinal submucosa powder was dissolved in phosphate buffered saline to 10, 15 and 20 wt %, respectively, to prepare homogeneous solutions. Then, FITC-labeled albumin (FITC-BSA) was added to a concentration of 1 mg/mL. 0.5 mL of the albumin-containing small intestine submucosa solutions were subcutaneously injected to nine SD rats (male, 8 weeks old, 350-380 g) using a syringe (21 G, 1-cc needle). For comparison, 0.5 mL of a solution containing FITC-labeled albumin of the same concentration was subcutaneously injected to three rats. When only albumin was subcutaneously injected, the drug was not released any more after 1 day. In contrast, in case of the albumin-containing small intestinal submucosa hydrogel, the drug was continuously released for about 9 days.",
  "data": [
    {"substance": "albumin: FITC-labeled albumin (FITC-BSA) solution, model drug injected alone for comparison", "values": [
      {"measurement": "duration of drug release (albumin concentration in blood)", "result": "≤ 1", "unit": "days"}
    ]}
  ]
}
